For series [1], the system named is HeLa Kyoto. Put plainly: solubility in G1/S (NP-40 vs SDS abundance) (log2 ratio); higher = more soluble. The following applies: cell cycle stage: G1/S.
For series [2], the system named is HeLa Kyoto. As to the kind of experiment: melting temperature (median over replicates), in situ; higher = more thermally stable.
The test system of series [3] is HeLa Kyoto. Put plainly: thermal stability score vs G1/S (z-score of summed log2 fold changes over temperatures); higher = more thermally stable than in G1/S.
Series [4] has as its system HeLa Kyoto. As to the kind of experiment: solubility change mitosis vs G1/S (difference of NP-40 vs SDS log2 ratios) (log2 ratio difference); higher = more soluble in mitosis.
[5] abbreviates: cell cycle stage: early G1 (4.5 h after nocodazole release).
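Throughout, for melting temperature (median over replicates), in situ: HeLa Kyoto cells synchronized by double thymidine or nocodazole block, proteins quantified by TMT10plex mass spectrometry, three independent biological replicates.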
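Throughout, for solubility change mitosis vs G1/S (difference of NP-40 vs SDS log2 ratios): synchronized HeLa Kyoto cells (double thymidine block for G1/S, nocodazole release for mitosis), protein amounts in NP-40 versus SDS lysates quantified by mass spectrometry, three biological replicates.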
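Throughout, for solubility in G1/S (NP-40 vs SDS abundance): HeLa Kyoto cells arrested at G1/S by double thymidine block, proteins quantified by TMT10plex mass spectrometry in mild NP-40 versus SDS extracts, three biological replicates.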
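Throughout, for thermal stability score vs G1/S (z-score of summed log2 fold changes over temperatures): synchronized HeLa Kyoto cells, proteins quantified by TMT10plex mass spectrometry, three biological replicates, mitosis taken 0.5 h after nocodazole release, G1/S directly after double thymidine block.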

For “MELCGLGLPRPPMLLALLLATLLAAMLALLTQVALVVQVAEAARAPSVSAKPGPALWPLPLLVKMTPNLLHLAPENFYISHSPNSTAGPSCTLLEEAFRRYHGYIFGFYKWHHEPAEFQAKTQVQQLLVSITLQSECDAFPNISSDESYTLLVKEPVAVLKANRVWGALRGLETFSQLVYQDSYGTFTINESTIIDSPRFSHRGILIDTSRHYLPVKIILKTLDAMAFNKFNVLHWHIVDDQSFPYQSITFPELSNKGSYSLSHVYTPNDVRMVIEYARLRGIRVLPEFDTPGHTLSWGKGQKDLLTPCYSRQNKLDSFGPINPTLNTTYSFLTTFFKEISEVFPDQFIHLGGDEVEFKCWESNPKIQDFMRQKGFGTDFKKLESFYIQKVLDIIATINKGSIVWQEVFDDKAKLAPGTIVEVWKDSAYPEELSRVTASGFPVILSAPWYLDLISYGQDWRKYYKVEPLDFGGTQKQKQLFIGGEACLWGEYVDATNLTPRLWPRASAVGERLWSSKDVRDMDDAYDRLTRHRCRMVERGIAAQPLYAGYCNHENM [HEXB]”, the “solubility in G1/S (log2)” value in the series with HeLa Kyoto [1] was found to be 0.38. Further, the melting temperature in the series on HeLa Kyoto [2] (cell cycle stage: G1/S) is 56.7 °C; with HeLa Kyoto [2] (cell cycle stage: mitosis) it was 58 °C. For the same sequence, the values for the thermal stability score with HeLa Kyoto [3] (setting [5]) and with HeLa Kyoto [3] (cell cycle stage: mitosis) were -1.76 and -0.878, respectively. The “solubility change mitosis (log2)” value with HeLa Kyoto [4] is 0.0247.
Regarding “MELDSALEAPSQEDSNLSEELSHSAFGQAFSKILHCLARPEARRGNVKDAVLKDLGDLIEATEFDRLFEGTGARLRGMPETLGQVAKALEKYAAPSKEEEGGGDGHSEAAEKAAQVGLLFLKLLGKVETAKNSLVGPAWQTGLHHLAGPVYIFAITHSLEQPWTTPRSREVAREVLTSLLQVTECGSVAGFLHGENEDEKGRLSVILGLLKPDLYKESWKNNPAIKHVFSWTLQQVTRPWLSQHLERVLPASLVISDDYQTENKILGVHCLHHIVLNVPAADLLQYNRAQVLYHAISNHLYTPEHHLIQAVLLCLLDLFPILEKTLHWKGDGARPTTHCDEVLRLILTHMEPEHRLLLRRTYARNLPAFVNRLGILTVRHLKRLERVIIGYLEVYDGPEEEARLKILETLKLLMQHTWPRVSCRLVVLLKALLKLICDVARDPNLTPESVKSALLQEATDCLILLDRCSQGRVKGLLAKIPQSCEDRKVVNYIRKVQQVSEGAPYNGT [TTI2]”, in the series with HeLa Kyoto [1], the “solubility in G1/S (log2)” value worked out at 0.208. The melting temperature came out at 50.5 °C in the series with HeLa Kyoto [2] (cell cycle stage: G1/S) and 49.7 °C in the series on HeLa Kyoto [2] (cell cycle stage: mitosis). Also, the thermal stability score was found to be 0.152 in the series on HeLa Kyoto [3] (setting [5]) and 0.904 in the series on HeLa Kyoto [3] (cell cycle stage: mitosis). Also, the “solubility change mitosis (log2)” value with HeLa Kyoto [4] is -0.201.
For the sequence “MELFLAGRRVLVTGAGKGIGRGTVQALHATGARVVAVSRTQADLDSLVRECPGIEPVCVDLGDWEATERALGSVGPVDLLVNNAAVALLQPFLEVTKEAFDRSFEVNLRAVIQVSQIVARGLIARGVPGAIVNVSSQCSQRAVTNHSVYCSTKGALDMLTKVMALELGPHKIRVNAVNPTVVMTSMGQATWSDPHKAKTMLNRIPLGKFAEVEHVVNAILFLLSDRSGMTTGSTLPVEGGFWAC [DCXR]”, the “solubility in G1/S (log2)” value in the series with HeLa Kyoto [1] came out at 0.282. The melting temperature worked out at 57.7 °C in the series with HeLa Kyoto [2] (cell cycle stage: G1/S) and 55.7 °C with HeLa Kyoto [2] (cell cycle stage: mitosis). For the same sequence, the results for the thermal stability score with HeLa Kyoto [3] (setting [5]) and in the series with HeLa Kyoto [3] (cell cycle stage: mitosis) were -1.92 and -1.77, respectively. The “solubility change mitosis (log2)” value with HeLa Kyoto [4] was -0.0268.
As for “MELSAEYLREKLQRDLEAEHVEVEDTTLNRCSCSFRVLVVSAKFEGKPLLQRHRLVNACLAEELPHIHAFEQKTLTPDQWARERQK [BOLA2]”, the “solubility in G1/S (log2)” value in the series with HeLa Kyoto [1] was -0.0477. Besides, the melting temperature amounted to 50.9 °C with HeLa Kyoto [2] (cell cycle stage: G1/S) and 51.9 °C in the series with HeLa Kyoto [2] (cell cycle stage: mitosis). Also, the thermal stability score in the series on HeLa Kyoto [3] (setting [5]) turned out to be 0.374; in the series on HeLa Kyoto [3] (cell cycle stage: mitosis) it was 0.288. Besides, the “solubility change mitosis (log2)” value with HeLa Kyoto [4] turned out to be 0.186.
Turning to “MEMEKEFEQIDKSGSWAAIYQDIRHEASDFPCRVAKLPKNKNRNRYRDVSPFDHSRIKLHQEDNDYINASLIKMEEAQRSYILTQGPLPNTCGHFWEMVWEQKSRGVVMLNRVMEKGSLKCAQYWPQKEEKEMIFEDTNLKLTLISEDIKSYYTVRQLELENLTTQETREILHFHYTTWPDFGVPESPASFLNFLFKVRESGSLSPEHGPVVVHCSAGIGRSGTFCLADTCLLLMDKRKDPSSVDIKKVLLEMRKFRMGLIQTADQLRFSYLAVIEGAKFIMGDSSVQDQWKELSHEDLEPPPEHIPPPPRPPKRILEPHNGKCREFFPNHQWVKEETQEDKDCPIKEEKGSPLNAAPYGIESMSQDTEVRSRVVGGSLRGAQAASPAKGEPSLPEKDEDHALSYWKPFLVNMCVATVLTAGAYLCYRFLFNSNT [PTPN1]”, the “solubility in G1/S (log2)” value with HeLa Kyoto [1] was 0.0951. In addition, the melting temperature with HeLa Kyoto [2] (cell cycle stage: G1/S) was 49.4 °C; in the series with HeLa Kyoto [2] (cell cycle stage: mitosis), 50.1 °C. The thermal stability score in the series with HeLa Kyoto [3] (setting [5]) is 1.7; in the series on HeLa Kyoto [3] (cell cycle stage: mitosis), 4.54. Moreover, in the series with HeLa Kyoto [4], the “solubility change mitosis (log2)” value was -0.122.
In the case of “MEMEQEKMTMNKELSPDAAAYCCSACHGDETWSYNHPIRGRAKSRSLSASPALGSTKEFRRTRSLHGPCPVTTFGPKACVLQNPQTIMHIQDPASQRLTWNKSPKSVLVIKKMRDASLLQPFKELCTHLMEENMIVYVEKKVLEDPAIASDESFGAVKKKFCTFREDYDDISNQIDFIICLGGDGTLLYASSLFQGSVPPVMAFHLGSLGFLTPFSFENFQSQVTQVIEGNAAVVLRSRLKVRVVKELRGKKTAVHNGLGENGSQAAGLDMDVGKQAMQYQVLNEVVIDRGPSSYLSNVDVYLDGHLITTVQGDGVIVSTPTGSTAYAAAAGASMIHPNVPAIMITPICPHSLSFRPIVVPAGVELKIMLSPEARNTAWVSFDGRKRQEIRHGDSISITTSCYPLPSICVRDPVSDWFESLAQCLHWNVRKKQAHFEEEEEEEEEG [NADK]”, the “solubility in G1/S (log2)” value in the series with HeLa Kyoto [1] worked out at 0.208. The melting temperature came to 61.1 °C in the series on HeLa Kyoto [2] (cell cycle stage: G1/S) and 59.2 °C with HeLa Kyoto [2] (cell cycle stage: mitosis). Further, the thermal stability score with HeLa Kyoto [3] (setting [5]) was -6.99; in the series with HeLa Kyoto [3] (cell cycle stage: mitosis) it was -2.68. The “solubility change mitosis (log2)” value in the series with HeLa Kyoto [4] was 0.129.

Source of the values: the supplement of paper PMC5998384.
